“And” between values parts separate entries of the source, which are not always exact repeats. Equal entries are not always repeated.
Legend:
[1] = tested on: synthetic recursive+1 pathway; test: In vivo alcohol production of the synthetic recursive+1 pathway (fermentation, GC-FID); assay type: cell-based, E. coli
Method: The measured specificity and activity for each enzyme was used to select two candidates for further characterization of their ability to modulate alcohol production in vivo. The two enzymes with the highest activity and specificity (FIG. 4), KIVD_VLV and GEO 175, were tested for their ability to reprogram the synthetic recursive+1 pathway to produce long-chain alcohol products in vivo. The alcohol-producing biochemical pathway was adapted from a previous study used to synthesize alcohols of various lengths.^3,4 Starting from glucose, the aforementioned+1 pathway, involving LeuABCD, recursively elongates 2-ketoacids, starting with 2-ketobutyrate, into longer chained 2-ketoacids. These 2-ketoacids are then converted to aldehydes by ketoacid decarboxylases (native KIVD, KIVD_VLV, and GEO 175) and subsequently to alcohols by an alcohol dehydrogenase. Carbon flux through this alcohol synthesizing biochemical pathway is enhanced by overexpressing thrABC, ilvA, LeuABCD, and ADH6 on inducible plasmids transformed into E. coli.^3 The effects of overexpression were furthermore supported and maintained by knocking out the threonine exporter enzyme RhtA and the primary DNA recombination degradation enzyme RecA. The enzyme AdhE was also knocked out, which helps raise long chain alcohol production by eliminating a competing pathway where acetyl-CoA is directly converted to ethanol.^19
Genes were removed from the ATCC 98082 ΔrhtA strain genome using P1 transduction from the Keio collection as previously.^32 The aldehyde-alcohol dehydrogenase gene (adhE) was knocked out to eliminate ethanol production from acetyl-coA. In all strains, recA was knocked out to prevent recombination between the genome and plasmids, thereby stabilizing the transformants. Primers used to target recA for knockout were designed based on the Keio collection (Genobase, ecoli.aist-nara.ac.jp) and ordered from Integrated DNA Technologies.
For n-alcohol production, strains of ST128 were transformed with pZS_thrO, pZAlac_ilvABSleuA, and pZE_LeuA*BCDK*A6 containing various kivd mutations. Fermentation conditions were adapted from those in previous works,^3,4 with the following changes: 20 mL of medium was used, with 100 μg/mL ampicillin, […] kanamycin, and 100 μg/mL spectinomycin added. Cells were grown to an optical density at 600 nm of ˜0.6, followed by induction with 0.1 mM isopropyl-b-D-thiogalactoside (IPTG). After fermentation, cells were centrifuged for 15 minutes at 4000×g and 4° C. The supernatant was split into two fractions for analysis, 5 mL for short chain alcohols (ethanol, 1-propanol, and 1-butanol), and 15 mL for long chain alcohols (1-pentanol, 1-hexanol, 1-heptanol, and 1-octanol). Long chain alcohols were extracted from the 15 mL fraction by 3 mL n-hexane prior to analysis. GC-FID analysis was performed as previously described.^4

[2] = High-throughput pH-dependent colorimetric assay of KIVD mutant libraries in crude cell extracts; assay type: biochemical; settings: combinatorial KIVD mutants
Method: Partially degenerate oligonucleotides were ordered from Integrated DNA Technologies (San Diego, Calif.) and were used to generate libraries of kivd mutants (with N-terminal his tags) by PCR. Library DNA was purified, inserted into the PCR-amplified pQE9 vector by isothermal Gibson assembly,^31 and transformed into XL1-Blue cells. Individual ampicillin-resistant colonies were picked and grown in 96-well blocks at 37° C. overnight. The number of colonies picked was three times the theoretical library size to ensure approximately 95% probability of all possible mutation combinations occurring. Glycerol was added to 25% (w/v) and libraries were stored at −80° C. until enzyme activity and specificity were assayed. KIVD mutant libraries were screened using a pH-monitored enzyme assay (method explained below) to measure the rate of H^+ consumption resulting from the decarboxylation of 2-ketoacids.
KIVD mutant libraries were grown overnight in culture blocks, diluted 1:100 into fresh media (Luria Broth), grown at 37° C. for 3 hours to OD600 ˜0.6, induced with 0.1 mM IPTG (GoldBio, Saint Louis, Mo.), and grown for 2 additional hours at 37° C. Cells from the well blocks were transferred to 96-well assay plates (Costar, Corning, N.Y.) and cell density was measured at 600 nm. […] Absorbance was measured at 615 nm in a spectrophotometer (TEK Powerwave XS, BioTek, Winooski, Vt.). […]

[3] = In vitro steady-state kinetics of purified 2-ketoacid decarboxylases (ADH/NADH-coupled), C5 substrate; assay type: biochemical; settings: relative to GEO 175
Method: (§1) For the native KIVD and KIVD_VLV mutant, 2 ml overnight cultures of XL1B cells were transformed with pQE9 containing N-terminal his-tagged KIVD enzymes and grown in Terrific Broth (BP biomedical, Cat#3046-042) with 50 μg/mL of carbenicillin. (Fisher scientific, Cat# BP2648-5) For the GEOs, 2 ml overnight cultures of BLR cells were transformed with pet29b+ plasmid containing N-terminal his-tagged GEOs, and grown in Terrific Broth with 50 μg/mL of kanamycin. (Fisher scientific, Cat# BP906-5) These cultures were diluted 1:1000 in 500 mL of Terrific Broth with 1 mM MgSO4, 1% glucose, and 50ug/mL of corresponding antibiotics, then grown at 37° C. for 24 hours. […] Protein concentrations were determined using a Synergy H1 spectrophotometer (Biotek) by measuring absorbance at 280 nm using their calculated extinction coefficients with ExPASy ProtParam Tool.^33 All other buffers and salts were purchased from Fisher Scientific unless otherwise specified.
(§2) The kcat and KM values of selective KIVD mutants were measured for the substrates: C3, C5, isoC5, and C8. […] Activity was measured at 0.005 mM to 10 mM substrates. […] Absorbance readings were taken every 1-minute at OD340 at 21° C. for 60 minutes using the Synergy H1. Kinetic parameters (kcat and KM) were determined by fitting initial velocity versus substrate concentration data to the Michaelis-Menten equation.

[4] = In vitro steady-state kinetics of purified 2-ketoacid decarboxylases (ADH/NADH-coupled), C8 substrate; assay type: biochemical; settings: relative to GEO 175
Method: as §1, §2

[5] = forty hours, microaerobic, defined media

Molecule | drop of overall alcohol production from that obtained with KIVD [1] | heptanol share of alcohol production [1] | hexanol share of alcohol production [1] | major alcohol product [1] | pentanol share of alcohol production [1] | 1-Ethanol production [1, 5] | 1-Heptanol production [1, 5] | 1-Hexanol production [1, 5] | 1-Octanol production [1, 5] | 1-Pentanol production [1, 5] | 1-Propanol production [1, 5] | long chain (≥C5) alcohols produced ([1]; sum of long chain alcohols) | specificity for C8 and activity in colorimetric screening [2] | effect on shorter chain substrates [3] | effect on catalytic efficiency on C8 [4]
KIVD_VLV: KIVD triple mutant G402V/M538L/F542V, SEQ ID NO:3 (protein, Synthetic protein KIVD_VLV) MYTVGDYLLDRLHELGIEEIFGVPGDYNLQFLDQIISRKDMKWVGNANELNASYMADGYARTKKAAAFLTTFGVGELSAVNGLAGSYAENLPVVEIVGSPTSKVQNEGKFVHHTLADGDFKHFMKMHEPVTAARTLLTAENATVEIDRVLSALLKERKPVYINLPVDVAAAKAEKPSLPLKKENSTSNTSDQEILNKIQESLKNAKKPIVITGHEIISFGLEKTVSQFISKTKLPITTLNFGKSSVDEALPSFLGIYNGKLSEPNLKEFVESADFILMLGVKLTDSSTGAFTHHLNENKMISLNIDEGKIFNESIQNFDFESLISSLLDLSEIEYKGKYIDKKQEDFVPSNALLSQDRLWQAVENLTQSNETIVAEQGTSFFGASSIFLKPKSHFIGQPLWVSIGYTFPAALGSQIADKESRHLLFIGDGSLQLTVQELGLAIREKINPICFIINNDGYTVEREIHGPNQSYNDIPMWNYSKLPESFGATEERVVSKIVRTENEFVSVMKEAQADPNRMYWIELILAKEDAPKVLKKLGKLVAEQNKS | ~10 fold | 37% | 47% | Hexanol (C6) | 16% | no ethanol or propanol production is observed | 269 mg/L and 269 ± 23 mg/L | 341 mg/L and 341 ± 63 mg/L | not observed | 118 mg/L and 118 ± 29 mg/L | no ethanol or propanol production is observed | 728 mg/L | highest specificity and activity | – | –
GEO175 L376T_T240S: engineered mutant of GEO 175 containing two amino acid changes (L376T, T240S), SEQ ID NO:19 (protein, Synthetic mutant of GEO175) MRTVRESALDVLRARGMTTVFGNPGSTELPMLKQFPDDFRYVLGLQEAVVVGMADGFALASGTTGLVNLHTGPGTGNAMGAILNARANRTPMVVTAGQQVRAMLTMEALLTNPQSTLLPQPAVKWAYEPPRAADVAPALARAVQVAETPPQGPVFVSLPMDDFDVVLGEDEDRAAQRAAARTVTHAAAPSAEVVRRLAARLSGARSAVLVAGNDVDASGAWDAVVELAERTGLPVWSAPSEGRVAFPKSHPQYRGMLPPAIAPLSRCLEGHDLVLVIGAPVFCYYPYVPGAHLPENTELVHLTRDADEAARAPVGDAVVADLALTVRALLAELPAREAAAPAARTARAESTAEVDGVLTPLAAMTAIAQGAPANTTWVNESPSNLGQFHDATRIDTPGSFLFTAGGGLGFGLAAAVGAQLGAPDRPVVCVIGDGSTHYAVQALWTAAAYKVPVTFVVLSNQRYAILQWFAQVEGAQGAPGLDIPGLDIAAVATGYGVRAHRATGFGELSKLVRESALQQDGPVLIDVPVTTELPTL | – | – | – | – | – | – | – | – | – | – | – | – | – | negligible effect | decrease catalytic efficiency on C8

Reference: patent US10829756B2, “Discovery of enzymes from the alpha-keto acid decarboxylase family” (Regents of the University of California, priority 2015, dated 2020)
